B1: 7C4 VHH-hFc (Fc fusion)
chain: EVQLVESGGGLVQPGGSLRLSCTASGFTFSSYDMSWVRQAPGKGLEWVSGINSGGNKIYYADSVKGRFTISRDNAKNTLYLQMSSLKSEDTALYYCAIGRLYSVKGQGTQVTVSS
notes: also called NCI-CoV-7C4 VHH-hFc fusion protein
B2: 7A5 VHH-hFc (Fc fusion)
chain: B1 chain with E1A, T23A, D33Y, G50T, G54R, N56S, K57S, I58T
notes: also called NCI-CoV-7A5 VHH-hFc fusion protein
B3: 1A7 VHH-hFc (Fc fusion)
chain: QVQLVESGGGLVQPGGSLRLSCVASGFTFSSVDMSWVRQDPRKGLEWVSGINSGGGSTSYADSVKGQFTISRDNAKNTLYLEMNNLKPEDTAVYYCATGLAASGVWGQGTQVTVSS
notes: also called NCI-CoV-1A7 VHH-hFc fusion protein
B4: 2C7 VHH-hFc (Fc fusion)
chain: EVQLVESGGGSVQTGGSLRLSCVVSGYDYSNYCVAWFRQAEGKNREGLAGINTHGAYTNYNTPAKGRFTISQDLTKNTFTLQMNSLTPEDTAIYYCAAYPEYCPRFSSSSWNNSAVWGQGTQVTVSS
notes: also called NCI-CoV-2C7 VHH-hFc fusion protein
B5: NCI-CoV-8B6 (VHH)
VHH: AVQLVDSGGGSVQAGGSLRLSCAASGITYSTNCMGWFRQAPGKGLEWVSGINSDGRNTYYADSVKGRFTISQDNAKNTVYLQMNSLKPEDTAMYYCAAGSWYNQWGYSMDYWGQGTQVTVSS
B6: NCI-CoV-1H8 (VHH)
VHH: QVQLVESGGGLVQPGGSLRLSCAASGFTFSSYDMTWVRQAPGKGLEWVAAIYTADGSTYLDDSVKGRFTISQDNAKKTLYLQMTSLKVEDTAKYTCATGVGGSFSNWGRGTQVTVSS
B7: NCI-CoV-2B3 (VHH)
VHH: DVQLVESGGSSVQAGGSLRLSCAASGDSYRGNLMGWFRQAPGKAREGVAVIFTPNHNTYAADSVKGRFTISQDKAKNMVYLQMNSLKPEDTAMYYCATGWEGGLILSARAYRYWGQGTQVTVSS
B8: NCI-CoV-2A10 (VHH)
VHH: QVQLVESGGGSVQAGGSLRLSCAMSGLRVSNRCMGWFRQAPGKEREGVATICIGDGSTAYADSVKGRFTISQDNAKTTVFLEMNSLKPEDTAMYSCARAVRATAATLDPGNFFYWGQGTQVTVSS
B9: NCI-CoV-8A1 (VHH)
VHH: QVQLVESGGGSVQAGGSLRLSCAASGFTFSSYFMTWVRQAPGKGLEWVSTINSDGSNTYYADSVKGRFTISRDNAKNTLYLQMNSLKPEDTAMYYCNFRRMIGTSNLNYWGQGTQVTVSS
B10: NCI-CoV-3E5 (VHH)
VHH: EVQLVESGGGLVQPGGSLRLSCAASGFAFSSTRMHWVRQAPGVGLEWVSFIDRTDGGIISYADSVRGRFTISRDNAKNTVYLQMDRLNAEDTAVYYCLKEGPYLDYWDAWGQGTQVTVSS
B11: NCI-CoV-1D7 (VHH)
VHH: QVKLEESGGGLVQPGGSLKLSCTASGFTFSSYNMSWVRQAPGKGLKWVSMIRSDGSNTYYLDSVKGRFTISRDNAKNTVYLQMNSLEPGDTAVYYCVAGRHATYWGQGTQVTVSS
B12: NCI-CoV-2F5 (VHH)
VHH: B11 VHH with K3Q, E5V
B13: NCI-CoV-4C6 (VHH)
VHH: QVQLVESGGGSVQAGESLRLSCAVSGISSSTHYMAWFRQLPGKEREGLANIYTPAKVSLYANDVKGRFTISQDVTKNTVYLQMNSLKPEDTAMYYCAARRNAVCNAGSPLDFEFSYWGQGTQVTVSS
B14: 8A4 VHH-hFc (Fc fusion)
chain: EVQLVESGGGLVQPGESLRLSCEASGFTFSSVYMSWVRQAPGKGLEWISTIHPAGGSTYYADSMKDRFTISRDNAKNTLYLQMNSLKSEDTALYYCIIEALSGYRGPGTQVTVSS
notes: also called 8A4-hFc; NCI-CoV-8A4 VHH-hFc fusion protein
B15: 2F7 VHH-hFc (Fc fusion)
chain: QVKLEESGGGSVQSGGSLRLSCTVSRDTNTNINRCMGWFRQAPGKGLETVATINRDGTNTYYTDAVKGRFTISQDNVKNTVYLQMNNLTPEDTGTYICNAMGRGSGSRCDNWDPNYWGQGTQVTVSS
notes: also called 2F7-hFc; NCI-CoV-2F7 VHH-hFc fusion protein
B16: NCI-CoV-8G12 (VHH)
VHH: AVQLVDSGGGSVQAGGSLRLSCAASGYTSNMNHMGWFRQAPGKGLEWVSGIYSDGSTYYGDSVKGRFTISRDNAKNMLYLQMNNLKPEDTAVYYCSGDGGGIGYNYWGQGTQVTVSS
B17: NCI-CoV-7A3 (VHH)
VHH: QVQLVESGGGSVQPGGSLRLSCVVSGYTSSSRYMGWFRQVPGKGLEWVSGIKRDGTNTYYADSVKGRFTISQDNAKNTVYLQMNSLKPEDTAMYYCAAGSWYNQWGYSMDYWGKGTQVTVSS
B18: NCI-CoV-1A10 (VHH)
VHH: AVQLVDSGGGSVQAGGSLRLSCAASGFTGSNYCLGWFRQAPGKEREGVAVIERDTGGTTYPNSLEGRFTIAQDNAKNMVYLHMRNLQPEDTGTYTCAAARNGDSFGGFTFWGQGTQVTVSS
B19: NCI-CoV-7C4 (VHH)
VHH: B1 chain
B20: NCI-CoV-1G11 (VHH)
VHH: QVQLVESGGGSVQAGGSLRLSCVASGDTNTRQYMGWFRQAPGKEREGVAVVHSDSGGTYYADSVKERFIIAQDNAKNTVYLTMNSLKVEDTAIYYCAAKTLEKPHFSVFSAASYDYWGQGTQVTVSS
B21: NCI-CoV-8E1 (VHH)
VHH: EVQLVESGGGSVQAGGSLRLSCAASGFTFSSYYMSWVRQAPGKGLEWVSGIYSDGSTYYGDSVKGRFTISRDNAKNTLYLQMNSLKSEDTALYYCAIGTGTTRQGQGTQVTVSS
B22: NCI-CoV-1H6 (VHH)
VHH: AVQLVDSGGGSVQAGGSLNLSCVASGTTLRNGCMAWFRQVPGKEREVVAIIIRATSYTDYADSVKGRFTISQDNAKNTVYLQMKSLTPEDTATYYCAATLYRVNCAKREFDKWGQGTQVTVSS
B23: NCI-CoV-2F7 (VHH)
VHH: B15 chain
B24: NCI-CoV-7E5 (VHH)
VHH: AVQLVESGGGSVQAGGSLRLSCAASGYTYSSNYMGWFRQAPGKELEWVSGIYSDGRTYYGDSVKGRFTISRDNAKNTVYLQMNSLKPEDTAMYYCAAGSWYNQWGYSMDYWGKGTQVTVSS
B25: NCI-CoV-1A7 (VHH)
VHH: B3 chain
B26: NCI-CoV-2D4 (VHH)
VHH: EVQLVESGGGSVQAGGSLRLSCAASAVTSNTNYVGWLRQVPGKEREGVAGIYYDGGVYYDESVKGRFTISRDNAQNTVFLQMNSLKPEDTAMYYCGAGRGYRYQYGSAWYKPGQYHYWGQGTQVTVSS
B27: NCI-CoV-8A2 (VHH)
VHH: AVQLVDSGGGSVQAGGSLRLSCAASGYTYSICTMGWYRQAPGEGLEWVSGINADGSNTHYTDSVKGRFTISRDNAKKTLYLQMNSLKPEDTAIYYCAAHGTYDKYAPCGGFAGTYTYWGQGTQVTVSS
B28: NCI-CoV-1B5 (VHH)
VHH: DVQLVESGGGSVQAGGSLRLSCTGSRYTYSTYCMGWFRQAPGKEEEAVAIINSGGGEPYYGDSVKGRFTISQDRAKNTVYLQMDGLQPDDTAIYYCVAADSHNSRCYLGRSYVNYWGQGTQVTVSS

Numbering of substitutions follows the chain as printed.

The first test addresses SARS-CoV-2 spike on pseudovirus (SARS-CoV-2, UniProt P0DTC2 14-1273). Nature of the test: cell-based or functional assay.
Consider B1, for which the “IC50, SARS-CoV-2 spike pseudovirus neutralization, repeated assay (FIGS. 9A-9F)” value (from here on “IC50 … (FIGS. 9A-9F)”) stood at 4.29 µM. Turning to B2, the “IC50 … (FIGS. 9A-9F)” value was 3.43 µM. As to B3, the “IC50 … (FIGS. 9A-9F)” value was 0.428 µM.

As for B4, the “IC50 … (FIGS. 9A-9F)” value is 5.79 µM.

In another test the target is SARS-CoV-2 RBD (SARS-CoV-2, UniProt P0DTC2 319-541). Nature of the test: monoclonal VHH phage clone binding screen (FIG. 3A).
As to B5, the binding result is “binds”. B6: the binding result is “binds”. In the case of B7, the binding result is recorded as “binds”. In the case of B8, the binding result is on record as “binds”. Regarding B9, the binding result is “binds”.

For B10, the binding result is “binds”. Regarding B11, the binding result is recorded as “binds”. Still for that read-out and setting: under B12 stands “binds”.

Consider B13, for which the binding result is reported as “binds”.

The target in the next test is T1, BSA (UniProt P02769 25-607).
T1 construct: also called control protein
T1 sequence (P02769 25-607 limits assumed): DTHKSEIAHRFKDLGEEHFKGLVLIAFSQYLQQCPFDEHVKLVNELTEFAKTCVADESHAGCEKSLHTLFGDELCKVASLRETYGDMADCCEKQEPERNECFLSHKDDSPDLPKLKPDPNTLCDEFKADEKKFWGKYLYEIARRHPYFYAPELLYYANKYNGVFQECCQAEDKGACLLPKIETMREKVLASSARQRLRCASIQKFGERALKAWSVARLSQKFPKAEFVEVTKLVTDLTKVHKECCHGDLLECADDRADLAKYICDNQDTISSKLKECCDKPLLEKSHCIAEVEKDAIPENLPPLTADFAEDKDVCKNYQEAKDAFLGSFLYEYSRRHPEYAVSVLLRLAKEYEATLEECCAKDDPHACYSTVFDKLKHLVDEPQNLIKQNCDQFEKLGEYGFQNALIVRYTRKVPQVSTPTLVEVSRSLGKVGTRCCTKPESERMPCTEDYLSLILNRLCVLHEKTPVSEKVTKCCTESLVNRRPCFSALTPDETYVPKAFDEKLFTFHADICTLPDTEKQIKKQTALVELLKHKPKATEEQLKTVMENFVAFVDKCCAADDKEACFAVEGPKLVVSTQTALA
Nature of the test: ELISA, 1 µg/ml coated BSA, 1 µg/ml VHH-hFc. (In an ELISA, binding on a coated surface is turned into a signal by an enzyme label.)
Turning to B14, the binding result was “no binding (tested: 1 µg/ml)”.

Turning to B15, the binding result is reported as “no binding (tested: 1 µg/ml)”. For the molecule B1, the binding result is recorded as “no binding (tested: 1 µg/ml)”. Regarding B2, the binding result is “binds”. B3: the binding result is “no binding (tested: 1 µg/ml)”. The same measure, in the same setting: under B4 stands “no binding (tested: 1 µg/ml)”.

The target in a further test is T2, SARS-CoV S1 (SARS-CoV, UniProt P59594 14-667).
T2 construct: domain: S1; also called SARS-CoV S1 protein
Nature of the test: ELISA, 1 µg/ml coated antigen, 1 µg/ml VHH-hFc.
Take B14: the binding result is on record as “binds”. With B15, the binding result is listed as “no binding (tested: 1 µg/ml)”.

Regarding B1, the binding result is “binds”. B2: the binding result is on record as “binds”.

A further test deals with T3, SARS-CoV-2 S1.
T3 construct: also called S1 subunit of the SARS-CoV-2 spike protein
Nature of the test: monoclonal phage ELISA, drawn table of OD450 values.
As to B16, the OD450 turned out to be 0.62. As for B5, the OD450 stood at 0.88.

Molecule B17 showed an OD450 of 0.54. The molecule B18 returned an OD450 of 0.84.

B19 yielded an OD450 of 0.52. Molecule B20 had an OD450 of 0.68.

The molecule B21 yielded an OD450 of 0.51. As for B22, the OD450 amounted to 0.82.

For a further test, the target named is T4, SARS-CoV-2 S trimer (SARS-CoV-2, UniProt P0DTC2 16-1213).
T4 construct: also called SARS-CoV-2 S protein; S homotrimer protein
Described as above.
B23 displayed an OD450 of 0.8. For the molecule B16, the OD450 was found to be 0.6. As to B17, the OD450 is 0.59. Take B18: the OD450 stood at 0.63. In the case of B19, the OD450 was 0.76.

Consider B24, for which the OD450 stood at 0.6. For B25, the OD450 was found to be 0.67. The same measure, in the same setting: the result for B21 reads 0.58. The molecule B22 displayed an OD450 of 0.72. B26 registered an OD450 of 0.58. For B27, the OD450 turned out to be 0.61. Turning to B28, the OD450 came out at 0.67.

These data come from patent US20230391852A1 (US Dept. of Health and Human Services, published 2023).
